How the values were obtained:
[1] = tested on: inflammatory pain model in rat; conditions: cited from earlier work
[2] = tested on: β-arrestin1 or β-arrestin2; conditions: cell culture assays; cited from earlier work
[3] = target: T1, Delta mMor1 (Mus musculus, UniProt P42866, INS358LEVLFQGP/INS51ENLYFQ); test: Flow cytometry binding of VHHs to Delta mMor1/Sf9 cells with or without Mor1 ligand; conditions: for Side of Mor1 bound (intact versus permeable Sf9 cells, Topro3 gating) / Flow cytometry binding profile on Delta mMor1/Sf9 cells: periplasmic extracts; for Flow cytometry binding profile on Delta mMor1/Sf9 cells: no ligand, 20 μM Dmt1-Dalda or 20 μM naloxone, mock GPCR Sf9 as control
T1 construct: expressed in transfected cells; host or cells: Sf9 insect cells, baculovirus-infected (BestBac)

[4] = target: T2, truncDelta mMor1 (Mus musculus, UniProt P42866); test: ELISA of VHH binding to truncDelta mMor1 reconstituted in liposomes; conditions: periplasmic extracts, 10 μM Dmt1-Dalda
T2 construct: N- and C-termini are removed by enzymatic proteolysis, resulting in truncDelta mMor1; TEV cleavage site ENLYFQ (after G51 of P42866) (internal); made in house; host or cells: Sf9 insect cells (baculovirus); purified and reconstituted into lipid vesicles

[5] = target: T3, WT human Mor1 (Homo sapiens, UniProt P35372); test: Radioligand displacement by XA8635 on WT human hMor1/CHO membranes; assay type: binding; conditions: 5 μg WT human hMor1/CHO membranes, 1 nM radioligand, no agonist
T3 construct: purchased Perkin Elmer ES-542-M400UA; host or cells: CHO cells overexpressing wild-type human Mor1 (membranes)
Experimental: (§1) A radioligand competition assay was performed as described in Example 6 with minor modifications: 5 μg of WT human hMor1/CHO membranes or 7 μg of Delta mMor1/Sf9 membranes were incubated with a concentration range of purified XA8635 and 1 nM of the radioligand (no agonist was added). The mixture was incubated for 1 hour at RT and after washing, filter bound radioligand was measured.

[6] = target: T4, human Mor1 (Homo sapiens, UniProt P35372); test: Flow cytometry binding of mono- and bivalent XA8635 to Mor overexpressing CHO cells; conditions: for Binding to Mor overexpressing CHO cells vs parental non-transfected CHO cells: absence of any Mor1 ligand
T4 construct: expressed in transfected cells; host or cells: CHO cells

[7] = target: T5, Mor1 (Mus musculus, UniProt P42866); test: Affinity of XA8635 for ligand-free Mor1; conditions: read-out: Ki of binding to the receptor
[8] = target: T1, Delta mMor1; test: Radioligand displacement by XA8635 on Delta mMor1/Sf9 membranes; assay type: binding; conditions: 7 μg Delta mMor1/Sf9 membranes, 1 nM radioligand, no agonist
Experimental: as §1

[9] = target: T5, Mor1; assay type: binding

T4 sequence (P35372 whole entry): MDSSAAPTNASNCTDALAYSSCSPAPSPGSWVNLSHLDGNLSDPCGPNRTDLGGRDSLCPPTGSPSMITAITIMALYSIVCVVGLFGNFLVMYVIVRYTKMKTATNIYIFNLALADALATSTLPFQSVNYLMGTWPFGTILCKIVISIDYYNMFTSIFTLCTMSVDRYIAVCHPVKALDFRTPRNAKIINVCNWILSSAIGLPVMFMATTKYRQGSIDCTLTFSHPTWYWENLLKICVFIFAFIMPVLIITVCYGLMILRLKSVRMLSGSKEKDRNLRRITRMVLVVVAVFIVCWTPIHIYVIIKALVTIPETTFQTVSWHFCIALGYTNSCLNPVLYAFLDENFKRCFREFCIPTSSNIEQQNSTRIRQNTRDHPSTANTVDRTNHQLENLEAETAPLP
T3 sequence (P35372 whole entry): as above

| Molecule | Side of Mor1 bound (intact versus permeable Sf9 cells, Topro3 gating) [3] | Flow cytometry binding profile on Delta mMor1/Sf9 cells [3] | Binding to truncDelta mMor1 liposomes in ELISA [4] | further results |
| --- | --- | --- | --- | --- |
| COC(=O)[C@@H]1C[C@H](OC(=O)c2ccccc2)C(=O)[C@H]2[C@@]1(C)CC[C@H]1C(=O)O[C@H](c3ccoc3)C[C@]21C [herkinorin] | – | – | – | Antinociception in morphine-tolerant rats ([1]; morphine-tolerant rats): produces antinociception in morphine-tolerant rats; Formalin-induced flinching ([1]; rat, 10 mg/kg, i.pl., reversed by naloxone): reduces formalin-induced flinching to the same degree as morphine; Antinociceptive tolerance ([1]; repeated treatment over a 5-day period): does not develop; Recruitment of β-arrestin1 or β-arrestin2 [2]: does not recruit β-arrestin1 or β-arrestin2 |
| XA8727: Mor1-specific VHH, SEQ ID NO: 6, Profile III, intracellular binder (protein, listed as Lama glama) VHH: QVQLVESGGGLVQAGGSLRLSCAASGFTFDDYAIAWFRQAPGKEREGVSCISSSDGSTYYADSVKGRFTISNDNAKNTVYLQMNSLKPEDTAVYYCAADLSRSCGRGYRYLEVWGQGTQVTVSSAAAHHHHHHGAAEQKLISEEDLNGAA | intracellular part of Mor1 | Profile III | confirmed to bind Mor1 in ELISA | – |
| XA8635: Mor1-specific VHH, SEQ ID NO: 5, Profile II, binds extracellular part and orthosteric pocket (protein, listed as Lama glama) VHH: QVQLVESGGGLVQAGGSLRLSCAASGSISSISTMGWYRQAPGNERELVAAITSGGSTNYADSVKGRFTISRDNAKNTVYLQMNSLKPEDTAVYYCNFKYYSGSYFYKSEYDYWGQGTQVTVSSAAAHHHHHHGAAEQKLISEEDLNGAA | extracellular part of the receptor | Profile II | confirmed to bind Mor1 in ELISA | Fluorescence profile of purified VHH compared to the one obtained with periplasm ([3]; 1 μM purified VHH): identical fluorescence profile; Binding to Sf9 cells overexpressing Mor1 in presence of Mor1 ligand (agonist or antagonist) ([3]; 1 μM purified VHH, intact and permeable cells): loses its ability to specifically bind; Radioligand displacement [5]: dose-dependent increase in radioligand displacement; Binding to Mor overexpressing CHO cells vs parental non-transfected CHO cells [6]: dose-dependent specific binding; Ki [7]: ~12 nM; Radioligand displacement [8]: dose-dependent increase in radioligand displacement |
| XA9644: Profile III VHH of a new sequence family, SEQ ID NO: 74 (protein, listed as Lama glama) VHH: QVQLVESGGGLVRPGGSLRLSCVDSERIFSISAMGWYRQAPGKQRELVATITSGGTTNYADSVKGRFTISGDTAKNMVYLQMSSLKPEDTAVYYCAADMEVWDYTDGDDDDYWGQGTQVTVSSAAAHHHHHHGAAEQKLISEEDLNGAA | – | Profile III | – | – |
| XA8633: Mor1-specific VHH, SEQ ID NO: 1, Profile I, candidate G-protein mimicking, active state stabilizing (protein, listed as Lama glama) VHH: QVQLVESGGGLVRPGGSRRLSCVDSERTSYPMGWFRRAPGKEREFVASITWSGIDPTYADSVADRFTISRDVANNTLYLQMNSLKHEDTAVYYCAARAPVGQSSSPYDYDYWGQGTQVTVSSAAAHHHHHHGAAEQKLISEEDLNGAA | intracellular epitopes | Profile I | confirmed to bind Mor1 in ELISA | Fluorescence profile of purified VHH compared to the one obtained with periplasm ([3]; 1 μM purified VHH): identical fluorescence profile |
| XA8639: Mor1-specific VHH, SEQ ID NO: 2, Profile I, G-protein mimetic (protein, listed as Lama glama) VHH: QVQLVESGGGLVRPGGSLRLSCVDSERTSYPMGWFRRAPGKEREFVASITWSGIDPTYADSVADRFTTSRDVANNTLYLQMNSLKHEDTAVYYCAARAPVGQSSSPYDYDYWGQGTQVTVSSAAAHHHHHHGAAEQKLISEEDLNGAA | intracellular epitopes | Profile I | confirmed to bind Mor1 in ELISA | Enhancement of affinity for BU72 [9]: 176 fold |
| XA8641: Mor1-specific VHH, SEQ ID NO: 3, Profile I (protein, listed as Lama glama) VHH: QVQLVESGGGLVRPGGSLRLSCVDSGRTSYPMGWFRRAPGKEREFVASITWSGIDPTYADSVADRFTISRDVANNTLYLQMNSLKHEDTAVYYCAARAPVGQSSSPYDYDYWGQGTQVTVSSAAAHHHHHHGAAEQKLISEEDLNGAA | intracellular epitopes | Profile I | confirmed to bind Mor1 in ELISA | – |
| XA8643: Mor1-specific VHH, SEQ ID NO: 4, Profile I (protein, listed as Lama glama) VHH: QVQLVESGGGLVRPGGSLRLSCVDSERTSYPMGWFRRAPGKEREFVASITWSGIDPTYADSVADRFTISRDVANNTLYLQMNSLKHEDTAVYYCAARAPVGQSSSPYDYDYWGQGTQVTVSSAAAHHHHHHGAAEQKLISEEDLNGAA | intracellular epitopes | Profile I | confirmed to bind Mor1 in ELISA | – |
| bivalent XA8635: genetic head to tail fusion of XA8635, separated by a 9GS linker, SEQ ID NO: 49 (protein) QVQLVESGGGLVQAGGSLRLSCAASGSISSISTMGWYRQAPGNERELVAAITSGGSTNYADSVKGRFTISRDNAKNTVYLQMNSLKPEDTAVYYCNFKYYSGSYFYKSEYDYWGQGTQVTVSSGGGGSGGGSQVQLQESGGGLVQAGGSLRLSCAASGSISSISTMGWYRQAPGNERELVAAITSGGSTNYADSVKGRFTISRDNAKNTVYLQMNSLKPEDTAVYYCNFKYYSGSYFYKSEYDYWGQGTQVTVSSAAAEQKLISEEDLNGAAHHHHHH | – | – | – | Increased fluorescence versus monovalent XA8635 ([6]; 1 μM): approximately 34%; Binding to Mor overexpressing CHO cells vs parental non-transfected CHO cells [6]: dose-dependent specific binding |
